{"source": "patent US20080219985A1", "about": "(published 2008)", "binders": {"B1": {"name": "human PROK2 with a carboxy-terminal Glu-Glu tag, produced in baculovirus (PROK2cee) (ligand)", "chain": "AVITGACDKDSQCGGGMCCAVSIWVKSIRICTPMGKLGDSCHPLTRKVPFFGRRMHHTCPCLPGLACLRTSFNRFICLAQKGLEYMPMD", "notes": "also called huPROK2-CEE-Bv; Baculovirus-expressed PROK2"}, "B2": {"name": "human PROK2 produced in E. coli (in house) (ligand)", "chain": "AVITGACDKDSQCGGGMCCAVSIWVKSIRICTPMGKLGDSCHPLTRKVPFFGRRMHHTCPCLPGLACLRTSFNRFICLAQK"}, "B3": {"name": "human PROK2 (preparation not stated for the assay) (ligand)", "chain": "AVITGACDKDSQCGGGMCCAVSIWVKSIRICTPMGKLGDSCHPLTRKVPFFGRRMHHTCPCLPGLACLRTSFNRFICLAQK"}}, "key": {"[1]": {"molecular_target": "T1, PROK2 receptor on Wky12-22 cells (rat aortic smooth muscle cells) (rat)", "T1 sequence (Q4AEG4 whole entry)": "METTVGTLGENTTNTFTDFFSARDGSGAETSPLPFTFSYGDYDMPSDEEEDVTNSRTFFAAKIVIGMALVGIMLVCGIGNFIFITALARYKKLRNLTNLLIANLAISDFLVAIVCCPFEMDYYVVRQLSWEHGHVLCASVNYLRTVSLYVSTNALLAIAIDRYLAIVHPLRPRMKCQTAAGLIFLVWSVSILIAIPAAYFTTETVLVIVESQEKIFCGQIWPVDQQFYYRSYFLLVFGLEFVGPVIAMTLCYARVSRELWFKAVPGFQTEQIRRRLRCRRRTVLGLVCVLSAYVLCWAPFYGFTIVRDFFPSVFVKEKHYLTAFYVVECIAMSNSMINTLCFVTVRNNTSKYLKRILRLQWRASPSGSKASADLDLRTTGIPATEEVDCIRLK", "assay": "cell-based or functional assay"}, "[2]": {"molecular_target": "T2, GPCR73a receptor (human, UniProt Q8TCW9 1-393)", "T2 sequence (Q8TCW9 whole entry)": "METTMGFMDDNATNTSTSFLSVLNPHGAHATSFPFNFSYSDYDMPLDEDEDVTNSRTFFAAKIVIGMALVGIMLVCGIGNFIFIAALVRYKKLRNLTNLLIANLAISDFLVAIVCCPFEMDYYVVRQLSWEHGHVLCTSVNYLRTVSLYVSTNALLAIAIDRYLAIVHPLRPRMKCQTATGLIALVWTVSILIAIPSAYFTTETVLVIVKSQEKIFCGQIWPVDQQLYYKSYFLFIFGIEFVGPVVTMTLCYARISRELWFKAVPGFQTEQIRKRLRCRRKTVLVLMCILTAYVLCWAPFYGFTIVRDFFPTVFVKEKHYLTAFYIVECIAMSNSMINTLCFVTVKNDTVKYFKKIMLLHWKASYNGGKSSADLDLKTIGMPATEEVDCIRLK", "assay": "cell-based or functional assay"}, "[3]": {"molecular_target": "T1, PROK2 receptor on Wky12-22 cells (rat …)", "assay": "saturation binding of I-125 PROK2 to Wky12-22 cell monolayers at 4 C, two-site nonlinear regression, high affinity site", "experimental": "(§1) The binding of PROK2 to Wky12-22 cells was assessed using I¹²⁵-radiolabeled PROK2. Wky12-22 cells were seeded at low cell density and cultured for three to four days until they reached about 70% confluency. The cells were placed on ice, the medium was removed, and the monolayers were washed. The cells were incubated with increasing amounts of I¹²⁵-PROK2 in the absence (total binding) and presence (nonspecific binding) of a large excess of unlabeled PROK2. After various times at 4° C., the binding media were removed, the monolayers were washed, and the cells were solubilized with a small volume of 1.0 N NaOH. Cell associated radioactivity was determined in a gamma counter. The specific binding of I¹²⁵-PROK2 was calculated as the difference between the total and nonspecific values. The measured radioacitivity was normalized to cell number that was determined on a set of parallel cultures. Nonlinear regression using a two-site model was used to fit the binding data for determination of Kd and Bmax."}, "[4]": {"molecular_target": "T1, PROK2 receptor on Wky12-22 cells (rat …)", "assay": "saturation binding of I-125 PROK2 to Wky12-22 cell monolayers at 4 C, two-site nonlinear regression, low affinity site", "experimental": "as §1"}, "[5]": {"molecular_target": "T3, GPCR73b receptor (Homo sapiens (Human), UniProt Q8NFJ6 1-384)", "T3 sequence (Q8NFJ6 whole entry)": "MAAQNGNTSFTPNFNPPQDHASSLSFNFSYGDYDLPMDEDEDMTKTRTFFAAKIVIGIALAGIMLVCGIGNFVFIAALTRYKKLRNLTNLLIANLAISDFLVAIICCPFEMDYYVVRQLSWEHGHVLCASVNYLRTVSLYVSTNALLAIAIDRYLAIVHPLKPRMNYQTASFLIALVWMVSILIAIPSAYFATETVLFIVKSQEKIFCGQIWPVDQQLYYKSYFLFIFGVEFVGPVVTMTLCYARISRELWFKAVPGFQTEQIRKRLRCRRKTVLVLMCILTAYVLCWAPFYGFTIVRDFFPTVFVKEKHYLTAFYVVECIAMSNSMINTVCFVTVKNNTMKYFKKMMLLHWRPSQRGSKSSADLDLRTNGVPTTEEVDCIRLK", "assay": "cell-based or functional assay"}, "[6]": {"molecular_target": "T2, GPCR73a receptor", "assay": "cell-based or functional assay", "remark": "listed apart in the source"}, "[7]": {"molecular_target": "T3, GPCR73b receptor", "assay": "cell-based or functional assay", "remark": "listed apart in the source"}, "[8]": {"molecular_target": "T2, GPCR73a receptor", "assay": "cell-based or functional assay", "remark": "listed apart in the source"}, "[9]": {"molecular_target": "PROK2 receptor on 4T1.2 murine breast cancer cells (mouse)", "assay": "cell-based or functional assay"}}, "note": "Where “and” joins values, the source holds several entries; their conditions need not be identical. Equal entries are not always repeated. Where two headings read alike, the source gives them in different places.", "data": [{"binder": "B1", "values": [{"measurement": "EC50 of ERK-Map kinase activity in Wky12-22 cells", "setting": "[1]", "value": "0.5 nM and ~5 ng/ml"}, {"measurement": "SRE-luciferase fold-induction at 1 ng/ml, PROK2 heated at 56 C for 30 minutes", "setting": "[2]", "value": 1.8, "unit": "fold-induction"}, {"measurement": "SRE-luciferase fold-induction at 1 ng/ml, fresh PROK2", "setting": "[2]", "value": 2.5, "unit": "fold-induction"}, {"measurement": "SRE-luciferase fold-induction at 3.2 ng/ml, PROK2 heated at 56 C for 30 minutes", "setting": "[2]", "value": 3.7, "unit": "fold-induction"}, {"measurement": "SRE-luciferase fold-induction at 3.2 ng/ml, fresh PROK2", "setting": "[2]", "value": 7.1, "unit": "fold-induction"}, {"measurement": "SRE-luciferase fold-induction at 10 ng/ml, PROK2 heated at 56 C for 30 minutes", "setting": "[2]", "value": 10, "unit": "fold-induction"}, {"measurement": "SRE-luciferase fold-induction at 10 ng/ml, fresh PROK2", "setting": "[2]", "value": 13.1, "unit": "fold-induction"}, {"measurement": "SRE-luciferase fold-induction at 32 ng/ml, PROK2 heated at 56 C for 30 minutes", "setting": "[2]", "value": 14.8, "unit": "fold-induction"}, {"measurement": "SRE-luciferase fold-induction at 32 ng/ml, fresh PROK2", "setting": "[2]", "value": 18.7, "unit": "fold-induction"}, {"measurement": "SRE-luciferase fold-induction at 100 ng/ml, PROK2 heated at 56 C for 30 minutes", "setting": "[2]", "value": 18.6, "unit": "fold-induction"}, {"measurement": "SRE-luciferase fold-induction at 100 ng/ml, fresh PROK2", "setting": "[2]", "value": 20.5, "unit": "fold-induction"}, {"measurement": "Kd", "setting": "[3]", "value": 1.5, "unit": "nM"}, {"measurement": "Kd", "setting": "[4]", "value": 31, "unit": "nM"}]}, {"binder": "B2", "values": [{"measurement": "SRE-luciferase fold-induction at 1 ng/ml", "setting": "[5]", "value": 0.7, "unit": "fold-induction"}, {"measurement": "SRE-luciferase fold-induction at 3.2 ng/ml", "setting": "[5]", "value": 1.3, "unit": "fold-induction"}, {"measurement": "SRE-luciferase fold-induction at 10 ng/ml", "setting": "[5]", "value": 1.9, "unit": "fold-induction"}, {"measurement": "SRE-luciferase fold-induction at 32 ng/ml", "setting": "[5]", "value": 3, "unit": "fold-induction"}, {"measurement": "SRE-luciferase fold-induction at 100 ng/ml", "setting": "[5]", "value": 4.7, "unit": "fold-induction"}, {"measurement": "SRE-luciferase fold-induction at 320 ng/ml", "setting": "[5]", "value": 6.3, "unit": "fold-induction"}, {"measurement": "SRE-luciferase fold-induction at 1000 ng/ml", "setting": "[5]", "value": 7.1, "unit": "fold-induction"}, {"measurement": "SRE-luciferase fold-induction at 1 ng/ml", "setting": "[6]", "value": 1.9, "unit": "fold-induction"}, {"measurement": "SRE-luciferase fold-induction at 3.2 ng/ml", "setting": "[6]", "value": 4, "unit": "fold-induction"}, {"measurement": "SRE-luciferase fold-induction at 10 ng/ml", "setting": "[6]", "value": 8.4, "unit": "fold-induction"}, {"measurement": "SRE-luciferase fold-induction at 32 ng/ml", "setting": "[6]", "value": 15, "unit": "fold-induction"}, {"measurement": "SRE-luciferase fold-induction at 100 ng/ml", "setting": "[6]", "value": 19, "unit": "fold-induction"}, {"measurement": "SRE-luciferase fold-induction at 320 ng/ml", "setting": "[6]", "value": 20.7, "unit": "fold-induction"}, {"measurement": "SRE-luciferase fold-induction at 1000 ng/ml", "setting": "[6]", "value": 17.8, "unit": "fold-induction"}, {"measurement": "SRE-luciferase fold-induction at 1 ng/ml", "setting": "[7]", "value": 1, "unit": "fold-induction"}, {"measurement": "SRE-luciferase fold-induction at 3.2 ng/ml", "setting": "[7]", "value": 1.2, "unit": "fold-induction"}, {"measurement": "SRE-luciferase fold-induction at 10 ng/ml", "setting": "[7]", "value": 1.7, "unit": "fold-induction"}, {"measurement": "SRE-luciferase fold-induction at 32 ng/ml", "setting": "[7]", "value": 2.6, "unit": "fold-induction"}, {"measurement": "SRE-luciferase fold-induction at 100 ng/ml", "setting": "[7]", "value": 4.4, "unit": "fold-induction"}, {"measurement": "SRE-luciferase fold-induction at 320 ng/ml", "setting": "[7]", "value": 5.2, "unit": "fold-induction"}, {"measurement": "SRE-luciferase fold-induction at 1000 ng/ml", "setting": "[7]", "value": 4.8, "unit": "fold-induction"}, {"measurement": "SRE-luciferase fold-induction at 1 ng/ml", "setting": "[8]", "value": 4.1, "unit": "fold-induction"}, {"measurement": "SRE-luciferase fold-induction at 3.2 ng/ml", "setting": "[8]", "value": 7.6, "unit": "fold-induction"}, {"measurement": "SRE-luciferase fold-induction at 10 ng/ml", "setting": "[8]", "value": 10.2, "unit": "fold-induction"}, {"measurement": "SRE-luciferase fold-induction at 32 ng/ml", "setting": "[8]", "value": 14.1, "unit": "fold-induction"}, {"measurement": "SRE-luciferase fold-induction at 100 ng/ml", "setting": "[8]", "value": 17.6, "unit": "fold-induction"}, {"measurement": "SRE-luciferase fold-induction at 320 ng/ml", "setting": "[8]", "value": 22, "unit": "fold-induction"}, {"measurement": "SRE-luciferase fold-induction at 1000 ng/ml", "setting": "[8]", "value": 13.9, "unit": "fold-induction"}]}, {"binder": "B3", "values": [{"measurement": "ERK phosphorylation in 4T1.2 cells (BIO-PLEX phospho-protein assay), maximal at 100 ng/ml PROK2", "setting": "[9]", "value": 1.8, "unit": "fold"}, {"measurement": "ERK 1/2 phosphorylation in Wky12-22 cells, 15 minutes after 100 ng/ml PROK2", "setting": "[1]", "value": 11, "unit": "fold induction over basal"}, {"measurement": "JNK phosphorylation in Wky12-22 cells, 15 minutes after 100 ng/ml PROK2", "setting": "[1]", "value": 3, "unit": "fold"}]}]}
